{"source": "patent US20220227840A1"}
{"target": "tissue factor (TF) extracellular domains (UniProt P13726)", "assay": "SPR, TF on chip", "details": "not given", "units": {"Kd": "pM"}}
{"substance": "Wild-type anti-TF D3H44 Fab", "Kd": 56}
{"substance": "D3H44 Fab H:WT L:F98W", "Kd": 10.9}
{"substance": "D3H44 Fab H:K145E_D146G_Q179D_S188F L:V133A_Q160K_T178R", "Kd": 21.9}
{"substance": "D3H44 Fab H:V37W_Q39D L:Q38R_F98A", "Kd": 1730}
{"substance": "D3H44 Fab H:V37A_Q39K_W103H L:Q38N_P44W_T85E", "Kd": 832}
{"substance": "D3H44 Fab H:W103V L:P44W_L89W_F98A", "Kd": 4120}
{"substance": "D3H44 Fab H:Q39K L:Q38N_T85E_F98W", "Kd": 13.4}
{"substance": "D3H44 Fab H:W103H L:P44W_L89W_F98A", "Kd": 3400}
{"substance": "D3H44 Fab H:D146G_Q179R L:Q124E_V133W_Q160E_T180E", "Kd": 63.1}
{"substance": "D3H44 Fab H:V37W_Q39R_W103H L:Q38E_F98L", "Kd": 2990}
{"substance": "D3H44 Fab H:V37W_F100W_W103L L:F98A", "Kd": 1220}
{"substance": "D3H44 Fab H:D146G_Q179R L:Q124E_Q160E_T178D", "Kd": 81.6}
{"substance": "D3H44 Fab H:V37A_Q39E_W103V L:Q38N_P44W_T85K", "Kd": 550}
{"substance": "D3H44 Fab H:V37W_Q39K L:Q38N_T85E_F98A", "Kd": 1780}
{"substance": "D3H44 Fab H:K145T_Q179D_S188L L:V133A_Q160K_T178R", "Kd": 42.3}
{"substance": "D3H44 Fab H:F174W_S188L L:WT", "Kd": 27.1}
{"substance": "D3H44 Fab H:D146G_Q179K L:Q124E_Q160E_T180E", "Kd": 24.5}
{"substance": "D3H44 Fab H:V37I_Q39E L:Q38R_F98W", "Kd": 72.9}
{"substance": "D3H44 Fab H:V37W_Q39R L:Q38E_F98A", "Kd": 3180}
{"substance": "D3H44 Fab H:V37W_Q39E L:Q38N_T85K_F98A", "Kd": 861}
{"substance": "D3H44 Fab H:V37I_Q39R L:Q38E_F98W", "Kd": 144}
{"substance": "D3H44 Fab H:F174V_S188L L:WT", "Kd": 37.7}
{"substance": "D3H44 Fab H:V37W_Q39R_W103F L:Q38E_F98L", "Kd": 1110}
{"substance": "D3H44 Fab H:V37E L:L89R_F98T", "Kd": 2410}
{"substance": "D3H44 Fab H:F174V_P175S_S188G L:S176L", "Kd": 39.9}
{"substance": "D3H44 Fab H:Q39D_A139G_V190A L:Q38R_L135W", "Kd": 117}
{"substance": "D3H44 Fab H:WT L:L89F_F98W", "Kd": 239}
{"substance": "D3H44 Fab H:L143E_K145T L:Q160K_T178R", "Kd": 23.6}
{"substance": "D3H44 Fab H:D146G_Q179R L:Q124E_Q160E_T180E", "Kd": 78}
{"substance": "D3H44 Fab H:V37I_Q39E L:Q38N_T85K", "Kd": 18.2}
{"substance": "D3H44 Fab H:L143E_K145T L:Q124R", "Kd": 59.6}
{"substance": "D3H44 Fab H:Q39D L:Q38R_F98W", "Kd": 127}
{"substance": "D3H44 Fab H:V37T_A93Q_W103V L:P44W_F98W", "Kd": 192}
{"substance": "D3H44 Fab H:V37I_W103H L:P44W_F98W", "Kd": 240}
{"substance": "D3H44 Fab H:V37I_Q39R L:Q38D_F98W", "Kd": 101}
{"substance": "D3H44 Fab H:Q39R L:Q38E_F98W", "Kd": 178}
{"substance": "D3H44 Fab H:S188L_V190Y L:V133S", "Kd": 42.8}
{"substance": "D3H44 Fab H:D146G_Q179K L:Q124E_V133W_Q160E_T180E", "Kd": 82.8}
{"substance": "D3H44 Fab H:V37W_Q39D_W103F L:Q38R_F98L", "Kd": 924}
{"substance": "D3H44 Fab H:Q39R L:Q38D", "Kd": 22.9}
{"substance": "D3H44 Fab H:Q39M L:Q38M", "Kd": 27.3}
{"substance": "D3H44 Fab H:S186R L:Q124E_Q160E_T178D", "Kd": 125}
{"substance": "D3H44 Fab H:V37I_Q39R L:Q38E", "Kd": 123}
{"substance": "D3H44 Fab H:V37A_Q39R_W103V L:Q38E_P44W", "Kd": 977}
{"substance": "D3H44 Fab H:K145E_D146G_Q179D_S188L L:Q160K_T178R", "Kd": 41.5}
{"substance": "D3H44 Fab H:V37W_Q39E_W103F L:Q38N_T85K_F98L", "Kd": 2510}
{"substance": "D3H44 Fab H:V37W_Q39R_W103H L:Q38D_F98L", "Kd": 5620}
{"substance": "D3H44 Fab H:S188L L:S176G", "Kd": 86.6}
{"substance": "D3H44 Fab H:D146G_Q179K L:Q124E_Q160E_T178D", "Kd": 52.5}
{"substance": "D3H44 Fab H:K145T_Q179D_S188F L:V133A_Q160K_T178R", "Kd": 85.6}
{"substance": "D3H44 Fab H:V37T_A93Q_W103T L:P44W_F98W", "Kd": 1330}
{"substance": "D3H44 Fab H:V37W_A93V L:F98A", "Kd": 697}
{"substance": "D3H44 Fab H:K145T_Q179D_S188L L:Q160K_T178R", "Kd": 70.5}
{"substance": "D3H44 Fab H:V37W_Q39K_W103F L:Q38N_T85E_F98L", "Kd": 984}
{"substance": "D3H44 Fab H:A139I L:F118W_V133S", "Kd": 52}
{"substance": "D3H44 Fab H:F174W_S188L L:V133S", "Kd": 17.2}
{"substance": "D3H44 Fab H:A139G_V190A L:L135W", "Kd": 58.6}
{"substance": "D3H44 Fab H:V37W_Q39E_W103F L:Q38R_F98L", "Kd": 172}
{"substance": "D3H44 Fab H:W103V L:P44W_F98W", "Kd": 174}
{"substance": "D3H44 Fab H:F174V_S188L L:S176G", "Kd": 94.9}
{"substance": "D3H44 Fab H:D146G_S186R L:Q124E_Q160E_T178D", "Kd": 51.1}
{"substance": "D3H44 Fab H:A139I_K145T_D146G_Q179E_S188G_V190S L:F116A_V133G_S176F_T178A", "Kd": 40.6}
{"substance": "D3H44 Fab H:W103H L:P44W_F98W", "Kd": 212}
{"substance": "D3H44 Fab H:K145T_Q179D_S188F L:Q160K_T178R", "Kd": 111}
{"substance": "D3H44 Fab H:L45W L:Y87G", "Kd": 197}
{"substance": "D3H44 Fab H:V37W_Q39E L:Q38R_F98A", "Kd": 902}
{"substance": "D3H44 Fab H:S188L L:WT", "Kd": 34.2}
{"substance": "D3H44 Fab H:F174W_S188L L:S176G", "Kd": 15.5}
{"substance": "D3H44 Fab H:V37W_W103F L:F98L", "Kd": 955}
{"substance": "D3H44 Fab H:Q39E L:Q38N_T85K_F98W", "Kd": 34.8}
{"substance": "D3H44 Fab H:Q39R L:Q38D_F98W", "Kd": 127}
{"substance": "D3H44 Fab H:V37S_A93K L:F98Y", "Kd": 420}
{"substance": "D3H44 Fab H:V37I_Q39E L:Q38N_T85K_F98W", "Kd": 125}
{"substance": "D3H44 Fab H:L143E_K145T L:Q124R_Q160K_T178R", "Kd": 76.9}
{"substance": "D3H44 Fab H:V37W L:F98A", "Kd": 3440}
{"substance": "D3H44 Fab H:V37W_Q39D_W103H L:Q38R_F98L", "Kd": 7890}
{"substance": "D3H44 Fab H:Q39E L:Q38R_F98W", "Kd": 163}
{"substance": "D3H44 Fab H:Q39E L:Q38N_T85K", "Kd": 20.1}
{"substance": "D3H44 Fab H:S186K_S188H_V190G L:F118W_Q124E_V133S_S176A_T178S_T180E", "Kd": 61.5}
{"substance": "D3H44 Fab H:L143A_D146G_Q179R L:Q124E_V133W_Q160E_T180E", "Kd": 87.1}
{"substance": "D3H44 Fab H:L143K_D146G L:Q124E_V133D", "Kd": 24.3}
{"substance": "D3H44 Fab H:D146G_S186R L:Q124E_Q160E_T180E", "Kd": 67.1}
{"substance": "D3H44 Fab H:V37I_Q39D L:Q38R_F98W", "Kd": 177}
{"substance": "D3H44 Fab H:F100M_W103V L:P44W_L89W", "Kd": 1540}
{"substance": "D3H44 Fab H:S188L L:V133S", "Kd": 14.4}
{"substance": "D3H44 Fab H:F174V_S188L L:V133S", "Kd": 20.1}
{"substance": "D3H44 Fab H:F174G_S188A L:WT", "Kd": 79.2}
{"substance": "D3H44 Fab H:Q39K L:Q38N_T85E", "Kd": 21.3}
{"substance": "D3H44 Fab H:K145L_Q179E L:S131K", "Kd": 66}
{"target": "tissue factor (TF) extracellular domains (UniProt P13726)", "assay": "not given", "details": "Fab", "units": {"Kd": "pM"}}
{"substance": "D3H44 Fab H:V37W L:F98A", "Kd": 977}
{"target": "tissue factor (TF) extracellular domains (UniProt P13726)", "assay": "SPR, TF on chip", "details": "not given", "remark": "another data set of the same source", "units": {"Kd": "pM"}}
{"substance": "D3H44 Fab H:D146G_Q179R L:Q124E_Q160E_T178D", "Kd": 82}
{"substance": "D3H44 WT Fab with FLAG-tagged light chain", "Kd": 62.2}
{"substance": "D3H44 Fab H:D146G_Q179K L:Q124E_Q160E_T180E", "Kd": 24}
{"substance": "D3H44 Fab H:F174V_P175S_S188G L:S176L", "Kd": 40}
{"substance": "D3H44 Fab H:Q39D_A139G_V190A L:Q38R_L135W", "Kd": 25}
{"substance": "D3H44 Fab H:L143E_K145T L:Q160K_T178R", "Kd": 60}
{"substance": "D3H44 Fab H:S188L_V190Y L:V133S", "Kd": 43}
{"substance": "D3H44 Fab H:K145T_Q179D_S188F L:V133A_Q160K_T178R", "Kd": 86}
{"substance": "D3H44 Fab H:K145T_Q179D_S188L L:Q160K_T178R", "Kd": 71}
{"substance": "D3H44 WT Fab with HA-tagged light chain", "Kd": 52.2}
{"substance": "D3H44 Fab H:L143A_D146G_Q179R L:Q124E_V133W_Q160E_T180E", "Kd": 87}
